This note sets out measurements from patent US20180037892, “EPCAM APTAMERS AND CONJUGATES THEREOF” (Deakin University, published 2018).

Data set [1] has as its target T1, EpCAM (UniProt P16422 P16422:24-314).
T1 sequence: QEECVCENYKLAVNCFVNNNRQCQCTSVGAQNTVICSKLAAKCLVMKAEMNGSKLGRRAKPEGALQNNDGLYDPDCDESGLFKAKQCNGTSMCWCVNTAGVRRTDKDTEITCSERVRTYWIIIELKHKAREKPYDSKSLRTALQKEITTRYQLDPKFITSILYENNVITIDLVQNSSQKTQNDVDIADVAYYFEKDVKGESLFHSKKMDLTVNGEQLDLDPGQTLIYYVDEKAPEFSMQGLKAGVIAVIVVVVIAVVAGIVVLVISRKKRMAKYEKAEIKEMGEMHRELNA
The data set can be described thus: flow; HEY cells, 37 C; not internalised. The note with it: tags: native EpCAM on HT29 or HEY cells; label: 5' TYE665; hairpin.

Data set [2] addresses T2, Transferrin receptor (TfR) (Mus musculus, UniProt Q62351 Q62351:1-763). The data set can be described thus: flow; bEnd.3 cells, 5 mM MgCl2 folding, 37 C. To be noted: tags: native TfR on bEnd.3 mouse cerebral endothelial cells; chain copies: 2; label: 5' TYE665; two hairpins. The protocol:
(§1) In order to determine the binding affinity (equilibrium dissociation constant KD) of the aptamers. Binding assays were conducted to measure the binding to native EpCAM protein expressed on the cell surface. The aptamers were incubated with the cells at concentrations ranging from 0 nM to 400 nM. These were subsequently analysed by flow cytometry. Aptamers were thawed from storage (−20° C.) prior to use. These were then diluted via serial dilutions with phosphate buffered saline (PBS) in order to achieve the desired concentrations. PBS was supplemented with a MgCl₂ concentration appropriate for the aptamer (1 mM for anti-TfR aptamers; 5 mM for conjugate aptamers). Aptamers were then folded into their 3D structures using a thermocycler (85° C. for 5 minutes, slow cooling to 22° C. over 10 minutes and 37° C. for 15 minutes).
(§2) The binding affinities of aptamers Bi1, Bi2 and Bi3 were determined semi-quantitatively via flow cytometry, using bEnd.3 cells to assess reactivity with TfR, HEY cells to determine EpCAM specificity and the MOLT4 cell line as a negative control. Three independent binding assays were performed for these aptamer against all three cell lines (bEnd.3, HEY and MOLT4).

Data set [3] addresses T1, EpCAM. Kind of data set: flow; HEY cells, 5 mM MgCl2 folding, 37 C. The note with it: tags: native EpCAM on HT29 or HEY cells; label: 5' TYE665; two hairpins. Here is the method: as §1, §2
Data set [4] addresses T2, Transferrin receptor (TfR). The data set can be described thus: flow; bEnd.3 cells, 5 mM MgCl2 folding, 37 C; text gives 305.5. To be noted: tags: native TfR on bEnd.3 mouse cerebral endothelial cells; chain copies: 2; label: 5' TYE665; two hairpins. The protocol: as §1, §2
The target in data set [5] is T2, Transferrin receptor (TfR). The data set can be described thus: flow; bEnd.3 cells, 5 mM MgCl2 folding, 37 C; not internalised. To be noted: tags: native TfR on bEnd.3 mouse cerebral endothelial cells; chain copies: 2; label: 5' TYE665; two hairpins. Here is the method: as §1, §2
Data set [6] has as its target T1, EpCAM. Kind of data set: flow; HEY cells, scrambled EpCAM loop, 5 mM MgCl2 folding, 37 C. To be noted: tags: native EpCAM on HT29 or HEY cells; label: 5' TYE665; two hairpins. The protocol: as §1, §2
The target of data set [7] is T1, EpCAM. Kind of data set: flow; HEY cells, 37 C. The note with it: tags: native EpCAM on HT29 or HEY cells, label: 5' TYE665, hairpin. Here is the method: (§3) The equilibrium dissociation constant (KD) of each DNA EpCAM aptamer (Ep7, Ep8 and Ep9) was determined by measuring its binding to native EpCAM protein expressed on the cell surface using flow cytometry. HT29, HEY and HEK293T (5×10⁵) cells were first incubated with blocking buffer (PBS containing 10% FCS, 1 mg/mL tRNA, 1 mg/mL BSA) for 30 minutes followed by a single wash with binding buffer (PBS containing 10% FCS, 1 mg/mL tRNA, 1 mg/mL BSA) prior to incubation with serial dilutions of concentrations of the respective TYE665-labelled aptamers (0 to 200 nM) in binding buffer for 30 min at 37° C. The cells were washed three times with PBS and resuspended in PBS prior to flow cytometric analysis. The fluorescent intensity was determined using a FACS Canto II flow cytometer (Becton Dickinson), counting 10,000 events for each sample. The mean fluorescent intensity of each concentration was subtracted from that of the auto fluorescent control and the KD for each aptamer was calculated from the normalised values for fluorescent intensity.

In data set [8] the target is T2, Transferrin receptor (TfR). The data set can be described thus: flow; bEnd.3 cells, 1 mM MgCl2 folding, 37 C; text gives 365.6. The note with it: tags: native TfR on bEnd.3 mouse cerebral endothelial cells; chain copies: 2; label: 5' TYE665; hairpin.
In data set [9] the target is T2, Transferrin receptor (TfR). Kind of data set: flow; bEnd.3 cells, 1 mM MgCl2 folding, 37 C. To be noted: tags: native TfR on bEnd.3 mouse cerebral endothelial cells; chain copies: 2; label: 5' TYE665; hairpin.
In data set [10] the target is T1, EpCAM. Kind of data set: flow; HT29 cells, 37 C; no binding to EpCAM-negative HEK293T and K562. To be noted: tags: native EpCAM on HT29 or HEY cells; label: 5' TYE665; hairpin. Here is the method:
as §3

T2 sequence (Q62351 whole entry, one chain of several): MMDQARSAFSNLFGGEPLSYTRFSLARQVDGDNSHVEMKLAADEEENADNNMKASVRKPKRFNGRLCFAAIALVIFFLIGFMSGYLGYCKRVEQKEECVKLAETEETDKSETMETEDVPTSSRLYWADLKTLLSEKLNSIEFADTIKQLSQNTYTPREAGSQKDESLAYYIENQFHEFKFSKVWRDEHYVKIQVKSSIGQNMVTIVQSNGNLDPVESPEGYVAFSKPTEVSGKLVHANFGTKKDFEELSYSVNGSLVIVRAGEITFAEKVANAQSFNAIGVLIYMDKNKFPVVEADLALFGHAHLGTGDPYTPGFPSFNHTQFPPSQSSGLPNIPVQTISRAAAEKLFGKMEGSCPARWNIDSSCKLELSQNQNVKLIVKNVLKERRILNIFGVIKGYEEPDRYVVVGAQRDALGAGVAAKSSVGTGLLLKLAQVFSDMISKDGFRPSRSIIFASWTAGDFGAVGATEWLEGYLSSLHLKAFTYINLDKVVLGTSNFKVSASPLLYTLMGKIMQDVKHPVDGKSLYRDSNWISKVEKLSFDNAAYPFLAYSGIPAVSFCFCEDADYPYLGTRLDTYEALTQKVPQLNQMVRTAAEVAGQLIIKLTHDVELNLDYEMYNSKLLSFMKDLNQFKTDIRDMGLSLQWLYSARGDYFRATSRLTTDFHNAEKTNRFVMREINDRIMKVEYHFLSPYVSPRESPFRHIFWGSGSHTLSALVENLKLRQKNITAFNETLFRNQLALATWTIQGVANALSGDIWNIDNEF

In the case of CGCGCGCCGCATTCCTTTTGCGGCGCGCGT (ssDNA, 3' inverted dT [30 (3' inverted dT)]) [Scr Ex Ep7 (scrambled extended Ep7)], the Kd in data set [1] stood at 521 nM.
For the molecule GCGCGGTACCGCGCTAACGGAGGTTGCGTCCGT (ssDNA, 3' inverted dT) [Bi3 (TEPP, TfR3 loop + Ep7 loop conjugate)], the Kd was found to be 342 nM in data set [2] and 219 nM in data set [3].
With GCGCGGGCCCGCGCTAACGGAGGTTGCGTCCGT (ssDNA, 3' inverted dT) [Bi2 (TfR2 loop + Ep7 loop conjugate)], the figures for the Kd in data set [3] and in data set [4] were 205 nM and 305 nM, respectively.
GCGCGTGCACGCGCTAACGGATTCCTTTTCCGT (ssDNA, 3' inverted dT) [Bi1 (TENN conjugate, TfR1 loop + scrambled Ep7 loop)]: the results for the Kd in [5] and in data set [6] were 1690 nM and 921 nM, respectively.
Take CGCGCGCCGCAGGTTGCGTGCGGCGCGCGT (ssDNA, 3' inverted dT [30 (3' inverted dT)]) [Ex Ep7 (extended Ep7)]: binding in data set [7] (10 bp stem) was characterised by a dissociation constant (Kd) of 63.7 nM.
For the molecule GCGTGGTACCACGC (ssDNA, 3' inverted dT) [TfR3], in data set [8], the Kd came to 366 nM.
As to GCGTGTGCACACGC (ssDNA, 3' inverted dT) [TfR1], the Kd in [9] worked out at 5.76 µM.
On to GCGTGGGCCCACGC (ssDNA, 3' inverted dT) [TfR2], for which the Kd in [9] came out at 0.525 µM.
Regarding GGGGTTGGCCCCT (ssDNA, 3' inverted dT [13 (3' inverted dT)]) [Ep9], the figures for the Kd in data set [7] and in [10] were 266 nM and 31.8 nM, respectively.
